Molecular target: cynomolgus monkey LAG-3 protein (Cat#LA3-C52A0, Acrobiosystems) (cynomolgus monkey)
Test: BLI ForteBio Octet RED 96, biotin labeled antibody on streptavidin sensor, antigen 3.125-100 nM, 1:1 fit

Substance: LAG3.5 (BMS-986016, developed by Bristol-Myers Squibb) (antibody)
- Kd: 2.22 nM
